Data reported in PMC9482650, “Quantitative fragmentomics allow affinity mapping of interactomes” (Nature Communications, 2022).

How the values were obtained:
Experiment in all cases: holdup assay
Set-up in all cases: key: below the threshold = too weak to quantify, mostly under pKd 3.1 to 4
CASK, O14936 = target: CASK, O14936
DFNB31_1, Q9P202 = target: T1, DFNB31_1, Q9P202
T1 sequence (Q9P202 135-233, limits assumed, looked up): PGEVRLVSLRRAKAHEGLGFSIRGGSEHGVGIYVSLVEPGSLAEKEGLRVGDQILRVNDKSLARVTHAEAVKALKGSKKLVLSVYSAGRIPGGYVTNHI

DFNB31_2, Q9P202 = target: T2, DFNB31_2, Q9P202
T2 sequence (Q9P202 274-371, limits assumed, looked up): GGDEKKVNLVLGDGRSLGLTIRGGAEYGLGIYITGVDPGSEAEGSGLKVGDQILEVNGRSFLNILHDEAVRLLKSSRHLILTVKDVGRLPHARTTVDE

DLG2_3, Q15700 = target: DLG2_3, Q15700
DLG3_1, Q92796 = target: T3, DLG3_1, Q92796
T3 sequence (Q92796 125-227, limits assumed, looked up): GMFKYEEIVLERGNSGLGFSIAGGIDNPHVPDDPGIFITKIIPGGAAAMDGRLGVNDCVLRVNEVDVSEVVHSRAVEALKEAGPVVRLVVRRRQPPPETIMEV

FRMPD1, Q5SYB0 = target: T4, FRMPD1, Q5SYB0
T4 sequence (Q5SYB0 52-145, limits assumed, looked up): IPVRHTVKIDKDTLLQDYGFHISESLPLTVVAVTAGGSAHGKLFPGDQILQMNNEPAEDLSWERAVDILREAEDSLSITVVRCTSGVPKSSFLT

FRMPD2_3, Q68DX3 = target: FRMPD2_3, Q68DX3
GIPC2, Q8TF65 = target: GIPC2, Q8TF65
GRASP, Q7Z6J2 = target: GRASP, Q7Z6J2
GRID2IP_1, A4D2P6 = target: GRID2IP_1, A4D2P6
GRIP2_3, Q9C0E4 = target: GRIP2_3, Q9C0E4
IL16_3, Q14005 = target: IL16_3, Q14005
Inadl_1, Q8NI35 = target: Inadl_1, Q8NI35
Inadl_10, Q8NI35 = target: Inadl_10, Q8NI35
Inadl_5, Q8NI35 = target: Inadl_5, Q8NI35
LIN7A, O14910 = target: T5, LIN7A, O14910
T5 sequence (O14910 103-200, limits assumed, looked up): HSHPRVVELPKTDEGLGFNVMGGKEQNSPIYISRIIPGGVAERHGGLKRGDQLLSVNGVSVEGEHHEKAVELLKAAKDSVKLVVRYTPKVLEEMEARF

MAGI1_1, Q96QZ7 = target: MAGI1_1, Q96QZ7
MAGI2_2, Q86UL8 = target: MAGI2_2, Q86UL8
MAGI2_3, Q86UL8 = target: MAGI2_3, Q86UL8
MPDZ_10, O75970 = target: T6, MPDZ_10, O75970
T6 sequence (O75970 1624-1722, limits assumed, looked up): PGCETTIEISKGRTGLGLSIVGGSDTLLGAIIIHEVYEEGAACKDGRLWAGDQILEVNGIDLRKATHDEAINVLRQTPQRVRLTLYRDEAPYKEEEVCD

MPDZ_5, O75970 = target: T7, MPDZ_5, O75970
T7 sequence (O75970 695-796, limits assumed, looked up): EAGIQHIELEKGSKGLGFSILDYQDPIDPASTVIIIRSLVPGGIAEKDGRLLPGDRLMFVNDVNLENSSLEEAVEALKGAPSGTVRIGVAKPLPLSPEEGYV

NHERF3_1, Q5T2W1 = target: T8, NHERF3_1, Q5T2W1
T8 sequence (Q5T2W1 4-100, limits assumed, looked up): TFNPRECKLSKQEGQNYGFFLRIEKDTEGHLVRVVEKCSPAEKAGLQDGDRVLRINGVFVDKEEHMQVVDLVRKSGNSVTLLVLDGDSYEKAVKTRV

PARD3B_1, Q8TEW8 = target: T9, PARD3B_1, Q8TEW8
T9 sequence (Q8TEW8 196-299, limits assumed, looked up): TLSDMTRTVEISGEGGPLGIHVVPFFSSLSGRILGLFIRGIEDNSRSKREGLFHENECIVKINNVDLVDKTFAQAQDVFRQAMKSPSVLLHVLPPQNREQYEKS

PDLIM1, O00151 = target: PDLIM1, O00151
RADIL, Q96JH8 = target: T10, RADIL, Q96JH8
T10 sequence (Q96JH8 971-1071, limits assumed, looked up): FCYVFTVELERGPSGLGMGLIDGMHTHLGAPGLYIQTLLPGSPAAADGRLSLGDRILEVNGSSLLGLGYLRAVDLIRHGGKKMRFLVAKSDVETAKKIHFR

SCRIB_1, Q14160 = target: SCRIB_1, Q14160
SCRIB_2, Q14160 = target: SCRIB_2, Q14160
TJP2_1, Q9UDY2 = target: TJP2_1, Q9UDY2
[1] = plain residues with an end cap or a label only (N-terminal biotin on a linker: ado-ado)
[2] = plain residues with an end cap or a label only (N-terminal biotin on a linker: ttds)

MAGI2_2, Q86UL8, sequence (Q86UL8 410-522): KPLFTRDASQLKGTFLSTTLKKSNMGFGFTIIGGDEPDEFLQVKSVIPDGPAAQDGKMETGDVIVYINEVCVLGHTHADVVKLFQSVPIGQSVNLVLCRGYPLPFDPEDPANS
GRASP, Q7Z6J2, sequence (Q7Z6J2 96-193): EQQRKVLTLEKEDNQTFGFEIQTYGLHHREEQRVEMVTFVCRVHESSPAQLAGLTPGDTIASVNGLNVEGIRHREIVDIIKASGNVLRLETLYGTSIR
GRID2IP_1, A4D2P6, sequence (A4D2P6 1-87): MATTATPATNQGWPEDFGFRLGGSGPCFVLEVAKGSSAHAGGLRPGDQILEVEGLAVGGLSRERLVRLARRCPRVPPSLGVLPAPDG
TJP2_1, Q9UDY2, sequence (Q9UDY2 24-128): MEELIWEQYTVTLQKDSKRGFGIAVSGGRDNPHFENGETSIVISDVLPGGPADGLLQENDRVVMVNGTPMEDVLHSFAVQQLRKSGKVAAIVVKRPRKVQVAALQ
Inadl_10, Q8NI35, sequence (Q8NI35 1673-1763): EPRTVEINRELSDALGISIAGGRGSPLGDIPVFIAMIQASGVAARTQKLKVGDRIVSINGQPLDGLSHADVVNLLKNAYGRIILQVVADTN
SCRIB_2, Q14160, sequence (Q14160 857-960): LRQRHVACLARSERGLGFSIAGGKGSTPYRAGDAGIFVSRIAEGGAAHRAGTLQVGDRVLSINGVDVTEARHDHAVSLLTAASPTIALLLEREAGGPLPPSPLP
SCRIB_1, Q14160, sequence (Q14160 718-814): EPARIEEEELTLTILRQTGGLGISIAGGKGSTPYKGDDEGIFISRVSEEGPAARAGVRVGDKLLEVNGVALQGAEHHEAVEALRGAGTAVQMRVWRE
CASK, O14936, sequence (O14936 487-570): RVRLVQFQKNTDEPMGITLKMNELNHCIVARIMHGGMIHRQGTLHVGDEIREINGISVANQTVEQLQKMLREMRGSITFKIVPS
Inadl_1, Q8NI35, sequence (Q8NI35 113-229): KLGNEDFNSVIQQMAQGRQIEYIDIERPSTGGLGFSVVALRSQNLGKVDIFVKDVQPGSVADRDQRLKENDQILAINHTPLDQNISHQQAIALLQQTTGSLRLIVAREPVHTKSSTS
MAGI2_3, Q86UL8, sequence (Q86UL8 600-682): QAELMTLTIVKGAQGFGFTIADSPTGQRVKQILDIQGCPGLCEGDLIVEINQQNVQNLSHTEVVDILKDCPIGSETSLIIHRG
PDLIM1, O00151, sequence (O00151 1-87): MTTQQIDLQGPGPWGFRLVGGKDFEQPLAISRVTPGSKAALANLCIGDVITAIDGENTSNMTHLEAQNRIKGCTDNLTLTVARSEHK
FRMPD2_3, Q68DX3, sequence (Q68DX3 1073-1166): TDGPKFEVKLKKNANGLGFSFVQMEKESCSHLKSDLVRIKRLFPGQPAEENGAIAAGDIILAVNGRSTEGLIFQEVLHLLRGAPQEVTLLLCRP
Inadl_5, Q8NI35, sequence (Q8NI35 673-780): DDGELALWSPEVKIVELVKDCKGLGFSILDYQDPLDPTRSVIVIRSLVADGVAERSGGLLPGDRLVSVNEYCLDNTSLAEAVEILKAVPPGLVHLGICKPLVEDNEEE
GRIP2_3, Q9C0E4, sequence (Q9C0E4 238-339): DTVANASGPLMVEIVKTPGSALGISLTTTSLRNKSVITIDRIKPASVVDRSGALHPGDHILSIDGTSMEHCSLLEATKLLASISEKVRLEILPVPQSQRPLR
MAGI1_1, Q96QZ7, sequence (Q96QZ7 1-106): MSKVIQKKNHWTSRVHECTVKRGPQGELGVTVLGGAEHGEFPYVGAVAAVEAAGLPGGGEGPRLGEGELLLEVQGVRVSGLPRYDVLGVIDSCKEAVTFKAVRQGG
GIPC2, Q8TF65, sequence (Q8TF65 112-203): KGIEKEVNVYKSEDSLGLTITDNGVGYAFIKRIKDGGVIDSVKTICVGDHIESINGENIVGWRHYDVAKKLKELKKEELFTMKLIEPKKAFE
IL16_3, Q14005, sequence (Q14005 1107-1207): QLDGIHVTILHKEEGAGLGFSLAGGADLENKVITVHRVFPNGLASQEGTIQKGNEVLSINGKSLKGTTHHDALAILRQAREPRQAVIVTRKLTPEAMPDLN

GFGEERESIL [KIDINS220, Q9ULH0] was tested, and the pKd (CASK, O14936; [1]) was “below the threshold”, the pKd (DFNB31_1, Q9P202; [1]) was “below the threshold” and the pKd (DFNB31_2, Q9P202; [1]) was “below the threshold”. For the same binder, the pKd (DLG2_3, Q15700; [1]) was “below the threshold”, the pKd (DLG3_1, Q92796; [1]) was “below the threshold” and the pKd (FRMPD1, Q5SYB0; [1]) was “below the threshold”. The pKd (FRMPD2_3, Q68DX3; [1]) was “below the threshold”, the pKd (GIPC2, Q8TF65; [1]) was 3.87 and the pKd (GRASP, Q7Z6J2; [1]) was 3.48. The pKd (GRID2IP_1, A4D2P6; [1]) was “below the threshold”, the pKd (GRIP2_3, Q9C0E4; [1]) was “below the threshold” and the pKd (IL16_3, Q14005; [1]) was “below the threshold”. The pKd (Inadl_1, Q8NI35; [1]) was “below the threshold”, the pKd (Inadl_10, Q8NI35; [1]) was “below the threshold” and the pKd (Inadl_5, Q8NI35; [1]) was “below the threshold”. For the same binder, the pKd (LIN7A, O14910; [1]) was 3.55, the pKd (MAGI1_1, Q96QZ7; [1]) was “below the threshold” and the pKd (MAGI2_2, Q86UL8; [1]) was “below the threshold”. The pKd (MAGI2_3, Q86UL8; [1]) was 3.48, the pKd (MPDZ_10, O75970; [1]) was “below the threshold” and the pKd (MPDZ_5, O75970; [1]) was “below the threshold”. For the same binder, the pKd (NHERF3_1, Q5T2W1; [1]) was 5.06, the pKd (PARD3B_1, Q8TEW8; [1]) was 4.57 and the pKd (PDLIM1, O00151; [1]) was “below the threshold”. For the same binder, the pKd (RADIL, Q96JH8; [1]) was 3.61, the pKd (SCRIB_1, Q14160; [1]) was “below the threshold” and the pKd (SCRIB_2, Q14160; [1]) was “below the threshold”. For the same binder, the pKd (TJP2_1, Q9UDY2; [1]) was “below the threshold”.

PKRPFVESNV [TANC2, Q9HCD6] was tested, and the pKd (CASK, O14936; [2]) was “below the threshold”, the pKd (DFNB31_1, Q9P202; [2]) was “below the threshold” and the pKd (DFNB31_2, Q9P202; [2]) was “below the threshold”. The pKd (DLG2_3, Q15700; [2]) was 3.86, the pKd (DLG3_1, Q92796; [2]) was 3.82 and the pKd (FRMPD1, Q5SYB0; [2]) was “below the threshold”. The pKd (FRMPD2_3, Q68DX3; [2]) was “below the threshold”, the pKd (GIPC2, Q8TF65; [2]) was “below the threshold” and the pKd (GRASP, Q7Z6J2; [2]) was “below the threshold”. The pKd (GRID2IP_1, A4D2P6; [2]) was “below the threshold”, the pKd (GRIP2_3, Q9C0E4; [2]) was “below the threshold” and the pKd (IL16_3, Q14005; [2]) was “below the threshold”. For the same binder, the pKd (Inadl_1, Q8NI35; [2]) was “below the threshold”, the pKd (Inadl_10, Q8NI35; [2]) was “below the threshold” and the pKd (Inadl_5, Q8NI35; [2]) was “below the threshold”. The pKd (LIN7A, O14910; [2]) was “below the threshold”, the pKd (MAGI1_1, Q96QZ7; [2]) was “below the threshold” and the pKd (MAGI2_2, Q86UL8; [2]) was “below the threshold”. The pKd (MAGI2_3, Q86UL8; [2]) was “below the threshold”, the pKd (MPDZ_10, O75970; [2]) was 3.51 and the pKd (MPDZ_5, O75970; [2]) was “below the threshold”. The pKd (NHERF3_1, Q5T2W1; [2]) was 3.59, the pKd (PARD3B_1, Q8TEW8; [2]) was “below the threshold” and the pKd (PDLIM1, O00151; [2]) was “below the threshold”. The pKd (RADIL, Q96JH8; [2]) was “below the threshold”, the pKd (SCRIB_1, Q14160; [2]) was 4.75 and the pKd (SCRIB_2, Q14160; [2]) was 4.59. The pKd (TJP2_1, Q9UDY2; [2]) was “below the threshold”.

In the case of LDSQIQETSI [MAP4, P27816], the pKd (CASK, O14936; [2]) is reported as “below the threshold”, the pKd (DFNB31_1, Q9P202; [2]) is reported as 5.03 and the pKd (DFNB31_2, Q9P202; [2]) is reported as “below the threshold”. For the same binder, the pKd (DLG2_3, Q15700; [2]) was 4.07, the pKd (DLG3_1, Q92796; [2]) was “below the threshold” and the pKd (FRMPD1, Q5SYB0; [2]) was “below the threshold”. For the same binder, the pKd (FRMPD2_3, Q68DX3; [2]) was “below the threshold”, the pKd (GIPC2, Q8TF65; [2]) was “below the threshold” and the pKd (GRASP, Q7Z6J2; [2]) was “below the threshold”. For the same binder, the pKd (GRID2IP_1, A4D2P6; [2]) was “below the threshold”, the pKd (GRIP2_3, Q9C0E4; [2]) was “below the threshold” and the pKd (IL16_3, Q14005; [2]) was “below the threshold”. The pKd (Inadl_1, Q8NI35; [2]) was “below the threshold”, the pKd (Inadl_10, Q8NI35; [2]) was “below the threshold” and the pKd (Inadl_5, Q8NI35; [2]) was “below the threshold”. For the same binder, the pKd (LIN7A, O14910; [2]) was “below the threshold”, the pKd (MAGI1_1, Q96QZ7; [2]) was “below the threshold” and the pKd (MAGI2_2, Q86UL8; [2]) was “below the threshold”. The pKd (MAGI2_3, Q86UL8; [2]) was “below the threshold”, the pKd (MPDZ_10, O75970; [2]) was “below the threshold” and the pKd (MPDZ_5, O75970; [2]) was “below the threshold”. For the same binder, the pKd (NHERF3_1, Q5T2W1; [2]) was 4.52, the pKd (PARD3B_1, Q8TEW8; [2]) was “below the threshold” and the pKd (PDLIM1, O00151; [2]) was “below the threshold”. The pKd (RADIL, Q96JH8; [2]) was “below the threshold”, the pKd (SCRIB_1, Q14160; [2]) was 5.56 and the pKd (SCRIB_2, Q14160; [2]) was 4.45. The pKd (TJP2_1, Q9UDY2; [2]) was “below the threshold”.

In the case of EDLTKNHDEL [RCN1, Q15293], the pKd (CASK, O14936; [1]) is reported as “below the threshold”, the pKd (DFNB31_1, Q9P202; [1]) is reported as “below the threshold” and the pKd (DFNB31_2, Q9P202; [1]) is reported as “below the threshold”. The pKd (DLG2_3, Q15700; [1]) was “below the threshold”, the pKd (DLG3_1, Q92796; [1]) was “below the threshold” and the pKd (FRMPD1, Q5SYB0; [1]) was “below the threshold”. For the same binder, the pKd (FRMPD2_3, Q68DX3; [1]) was “below the threshold”, the pKd (GIPC2, Q8TF65; [1]) was “below the threshold” and the pKd (GRASP, Q7Z6J2; [1]) was 3.86. For the same binder, the pKd (GRID2IP_1, A4D2P6; [1]) was “below the threshold”, the pKd (GRIP2_3, Q9C0E4; [1]) was 3.51 and the pKd (IL16_3, Q14005; [1]) was “below the threshold”. The pKd (Inadl_1, Q8NI35; [1]) was “below the threshold”, the pKd (Inadl_10, Q8NI35; [1]) was “below the threshold” and the pKd (Inadl_5, Q8NI35; [1]) was “below the threshold”. The pKd (LIN7A, O14910; [1]) was “below the threshold”, the pKd (MAGI1_1, Q96QZ7; [1]) was 3.62 and the pKd (MAGI2_2, Q86UL8; [1]) was “below the threshold”. The pKd (MAGI2_3, Q86UL8; [1]) was “below the threshold”, the pKd (MPDZ_10, O75970; [1]) was “below the threshold” and the pKd (MPDZ_5, O75970; [1]) was “below the threshold”. For the same binder, the pKd (NHERF3_1, Q5T2W1; [1]) was 3.75, the pKd (PARD3B_1, Q8TEW8; [1]) was “below the threshold” and the pKd (PDLIM1, O00151; [1]) was 3.52. For the same binder, the pKd (RADIL, Q96JH8; [1]) was 3.61, the pKd (SCRIB_1, Q14160; [1]) was 3.5 and the pKd (SCRIB_2, Q14160; [1]) was 3.54. The pKd (TJP2_1, Q9UDY2; [1]) was “below the threshold”.
